In paper PMC3097272 (The FEBS journal, 2011):

Tests used:
[1] = biological target: non-muscle human F-actin (human) (UniProt P60709); experiment: co-sedimentation
[2] = biological target: rabbit skeletal muscle myosin II (rabbit, UniProt Q28641 1-1938; P02602 1-192; P02608 1-170); experiment: co-sedimentation
Chain of rabbit skeletal muscle myosin II (Q28641 whole entry, chain 1 of 3): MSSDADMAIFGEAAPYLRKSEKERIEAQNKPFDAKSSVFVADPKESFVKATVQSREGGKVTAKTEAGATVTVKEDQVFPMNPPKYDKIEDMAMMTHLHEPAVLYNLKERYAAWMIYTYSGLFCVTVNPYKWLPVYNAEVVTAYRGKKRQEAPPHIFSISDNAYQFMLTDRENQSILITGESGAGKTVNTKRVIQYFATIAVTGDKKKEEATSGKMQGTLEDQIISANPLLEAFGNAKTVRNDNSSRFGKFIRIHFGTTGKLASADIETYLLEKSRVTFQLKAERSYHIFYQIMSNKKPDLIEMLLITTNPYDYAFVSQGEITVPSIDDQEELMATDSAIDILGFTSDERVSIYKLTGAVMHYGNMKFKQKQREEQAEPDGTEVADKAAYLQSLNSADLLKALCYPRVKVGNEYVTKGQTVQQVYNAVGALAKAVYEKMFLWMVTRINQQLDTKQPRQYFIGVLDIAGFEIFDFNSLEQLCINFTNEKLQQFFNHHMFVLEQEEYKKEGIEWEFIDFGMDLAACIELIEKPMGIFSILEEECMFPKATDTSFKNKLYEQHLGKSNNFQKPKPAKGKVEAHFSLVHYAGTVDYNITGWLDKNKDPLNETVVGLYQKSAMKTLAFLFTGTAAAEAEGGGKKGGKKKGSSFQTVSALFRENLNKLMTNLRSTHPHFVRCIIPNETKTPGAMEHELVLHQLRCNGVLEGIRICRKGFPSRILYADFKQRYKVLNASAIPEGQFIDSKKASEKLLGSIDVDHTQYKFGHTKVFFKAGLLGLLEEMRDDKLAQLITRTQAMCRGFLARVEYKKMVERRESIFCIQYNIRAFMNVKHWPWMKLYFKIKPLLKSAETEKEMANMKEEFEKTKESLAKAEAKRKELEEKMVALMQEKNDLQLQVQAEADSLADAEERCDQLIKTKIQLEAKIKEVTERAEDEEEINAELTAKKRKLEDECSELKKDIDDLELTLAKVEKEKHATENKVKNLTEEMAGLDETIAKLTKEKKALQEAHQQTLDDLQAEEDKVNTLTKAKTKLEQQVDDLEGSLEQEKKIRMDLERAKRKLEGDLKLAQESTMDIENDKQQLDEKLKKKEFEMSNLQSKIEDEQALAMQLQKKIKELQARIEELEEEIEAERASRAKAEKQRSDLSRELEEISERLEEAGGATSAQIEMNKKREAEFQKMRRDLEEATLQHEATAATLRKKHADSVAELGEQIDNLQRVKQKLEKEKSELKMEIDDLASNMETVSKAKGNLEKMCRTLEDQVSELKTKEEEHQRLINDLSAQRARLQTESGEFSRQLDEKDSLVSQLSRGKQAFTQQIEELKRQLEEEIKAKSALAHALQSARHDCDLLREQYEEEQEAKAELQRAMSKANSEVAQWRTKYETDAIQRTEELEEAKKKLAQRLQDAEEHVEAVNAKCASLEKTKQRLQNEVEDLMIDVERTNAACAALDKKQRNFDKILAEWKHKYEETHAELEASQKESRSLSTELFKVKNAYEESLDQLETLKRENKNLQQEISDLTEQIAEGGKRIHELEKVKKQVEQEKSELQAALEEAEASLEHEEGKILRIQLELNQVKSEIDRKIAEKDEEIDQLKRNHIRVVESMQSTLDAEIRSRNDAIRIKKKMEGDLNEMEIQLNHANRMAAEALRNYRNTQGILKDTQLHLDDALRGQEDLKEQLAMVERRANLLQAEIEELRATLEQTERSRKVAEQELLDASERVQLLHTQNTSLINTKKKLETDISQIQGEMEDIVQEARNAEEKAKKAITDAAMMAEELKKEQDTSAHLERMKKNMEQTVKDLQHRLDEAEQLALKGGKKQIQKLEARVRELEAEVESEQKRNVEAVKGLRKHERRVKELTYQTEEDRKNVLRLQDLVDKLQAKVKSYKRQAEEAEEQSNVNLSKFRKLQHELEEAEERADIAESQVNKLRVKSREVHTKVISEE
Chain of rabbit skeletal muscle myosin II (P02602 2-192, chain 2 of 3): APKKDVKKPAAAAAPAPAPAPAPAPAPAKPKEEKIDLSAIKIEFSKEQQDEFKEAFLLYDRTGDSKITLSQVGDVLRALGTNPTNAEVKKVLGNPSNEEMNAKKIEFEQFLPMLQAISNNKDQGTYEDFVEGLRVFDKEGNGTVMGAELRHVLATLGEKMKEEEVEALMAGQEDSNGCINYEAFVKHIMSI
Chain of rabbit skeletal muscle myosin II (P02608 2-170, chain 3 of 3): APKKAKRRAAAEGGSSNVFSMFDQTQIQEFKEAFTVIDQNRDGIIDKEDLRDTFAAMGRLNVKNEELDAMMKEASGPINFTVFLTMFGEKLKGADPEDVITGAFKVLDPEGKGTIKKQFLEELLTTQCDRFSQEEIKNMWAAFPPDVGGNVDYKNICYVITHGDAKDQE

| stoichiometry N (molar ratio (to 1)) [1] | stoichiometry N [2] | Molecule |
| --- | --- | --- |
| 5 |  | recombinant HGAL protein (Trx-HGAL fusion protein) (from UniProt Q8N6F7 1-178) (natural protein) |
|  | 2.5 molar ratio (to 1) | recombinant HGAL protein (Trx-HGAL fusion protein) (natural protein, human, UniProt Q8N6F7 1-178, looked up) MGNSLLRENRRQQNTQEMPWNVRMQSPKQRTSRCWDHHIAEGCFCLPWKKILIFEKRQDSQNENERMSSTPIQDNVDQTYSEELCYTLINHRVLCTRPSGNSAEEYYENVPCKAERPRESLGGTETEYSLLHMPSTDPRHARSPEDEYELLMPHRISSHFLQQPRPLMAPSETQFSHL |
